According to patent US20240189352A1:
Each block holds one binder with its values, some of them ahead of it.

Biological target: RAC2^P29L peptide … presented by HLA-A2 (peptide-loaded T2 cells) (human)
Assay: cell-based or functional assay

IFNγ production by TCR-transduced T cells (relative): 100%
B1: RAC2-T001 TCR (TCR)
TCR alpha: GENVEQHPSTLSVQEGDSAVIKCTYSDSASNYFPWYKQELGKGPQLIIDIRSNVGEKKDQRIAVTLNKTAKHFSLHITETQPEDSAVYFCAASMGNAGNMLTFGGGTRLMVKPH
TCR beta: EPEVTQTPSHQVTQMGQEVILRCVPISNHLYFYWYRQILGQKVEFLVSFYNNEISEKSEIFDDQFSVERPDGSNFTLKIRSTKLEDSAMYFCASSETSGASYEQYFGPGTRLTVT

IFNγ production by TCR-transduced T cells (relative): 100%
B2: RAC2-T002 TCR (TCR)
TCR alpha: AQSVTQLGSHVSVSEGALVLLRCNYSSSVPPYLFWYVQYPNQGLQLLLKYTTGATLVKGINGFEAEFKKSETSFHLTKPSAHMSDAAEYFCAVGANNLFFGTGTRLTVIPY
TCR beta: EPEVTQTPSHQVTQMGQEVILRCVPISNHLYFYWYRQILGQKVEFLVSFYNNEISEKSEIFDDQFSVERPDGSNFTLKIRSTKLEDSAMYFCASSEWRGSSYNEQFFGPGTRLTVL
